In experiment [1] the target is Abeta(1-40) monomer in 0.1% NH4OH (human). As to the kind of experiment: dot blot, antigen dilution series on nitrocellulose, antibody 0.2 µg/ml, densitometry.
Experiment [2] deals with Abeta(1-40) monomer in 0.1% NaOH (human). The experiment is described as above.
Experiment [3] concerns the target Abeta(1-42) fibril preparation (human) (UniProt P05067). The experiment is described as above.
Experiment [4] concerns the target Abeta(1-42) globulomer (human) (UniProt P05067). Described as above.
Experiment [5] has as its target Abeta(1-42) monomer in 0.1% NH4OH (human). The description is as above.
Experiment [6] concerns the target Abeta(1-42) monomer in 0.1% NaOH (human). Described as above.
The target of experiment [7] is platelet factor 4 (PF-4) in Cynomolgus monkey plasma (Cynomolgus (Macaca fascicularis)). The experiment can be described thus: sandwich-ELISA with cynomolgus plasma; reference antibody.
For experiment [8], the target named is human platelet factor 4 (PF-4) in HPF4-spiked human plasma (human) (UniProt P02776). The experiment can be described thus: sandwich-ELISA with HPF4-spiked human plasma; reference antibody.
Experiment [9] deals with platelet factor 4 (PF-4) in Cynomolgus monkey plasma (Cynomolgus (Macaca fascicularis)). The experiment can be described thus: aligned sandwich-ELISA with cynomolgus plasma; reference antibody.
The target of experiment [10] is human platelet factor 4 (PF-4) in HPF4-spiked human plasma (human) (UniProt P02776). As to the kind of experiment: aligned sandwich-ELISA with HPF4-spiked human plasma; reference antibody.
In experiment [11] the target is platelet factor 4 (PF-4) in Cynomolgus monkey plasma (Cynomolgus (Macaca fascicularis)). The experiment can be described thus: sandwich-ELISA, antibody coated at 10 µg/ml, cynomolgus plasma dilutions 1:3.16 to 1:3160, OD450 against log dilution.
For experiment [12], the target named is human platelet factor 4 (PF-4) in HPF4-spiked human plasma (human) (UniProt P02776). The experiment can be described thus: sandwich-ELISA, antibody coated at 10 µg/ml, HPF4-spiked human plasma dilutions 1:3.16 to 1:3160, OD450 against log dilution.
For experiment [13], the target named is platelet factor 4 (PF-4) in Cynomolgus monkey plasma (Cynomolgus (Macaca fascicularis)). As to the kind of experiment: aligned sandwich-ELISA, antibody 10 to 10000 ng/ml captured by anti-mouse IgG (Fc), cynomolgus plasma 1:100, OD450 against log concentration.
For experiment [14], the target named is human platelet factor 4 (PF-4) in HPF4-spiked human plasma (human) (UniProt P02776). The experiment can be described thus: aligned sandwich-ELISA, antibody 10 to 10000 ng/ml captured by anti-mouse IgG (Fc), HPF4-spiked human plasma 1:10, OD450 against log concentration.
Experiment [15] addresses platelet factor 4 (PF-4) in Cynomolgus monkey plasma (Cynomolgus (Macaca fascicularis)). As to the kind of experiment: aligned sandwich-ELISA: antibody dilution series captured by coated anti-mouse IgG (Fc), cynomolgus plasma 1:100, bound PF-4 detected with rabbit anti-HPF4 and anti-rabbit-POD.
For experiment [16], the target named is human platelet factor 4 (PF-4) in HPF4-spiked human plasma (human) (UniProt P02776). As to the kind of experiment: aligned sandwich-ELISA: antibody dilution series captured by coated anti-mouse IgG (Fc), HPF4-spiked human plasma 1:10, bound PF-4 detected with rabbit anti-HPF4 and anti-rabbit-POD.

Chain of platelet factor 4 (PF-4) in Cynomolgus monkey plasma (Cynomolgus (Macaca fascicularis)) (chain, as listed by the source): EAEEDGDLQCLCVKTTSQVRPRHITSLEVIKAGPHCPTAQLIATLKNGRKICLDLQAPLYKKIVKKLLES
Chain of human platelet factor 4 (PF-4) in HPF4-spiked human plasma (human) (P02776 32-101): as the sequence (chain, as listed by the source) above, with V64I counted along it
Chain of Abeta(1-40) monomer in 0.1% NaOH (human) (peptide, as listed by the source): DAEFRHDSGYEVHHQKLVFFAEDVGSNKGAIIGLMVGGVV
Chain of Abeta(1-42) globulomer (human) (P05067 672-713 limits assumed): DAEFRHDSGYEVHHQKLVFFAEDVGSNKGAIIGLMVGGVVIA
Chain of Abeta(1-42) monomer in 0.1% NaOH (human) (peptide, as listed by the source): as the sequence (P05067 672-713 limits assumed) above
Chain of Abeta(1-42) fibril preparation (human) (P05067 672-713 limits assumed): as above
Chain of Abeta(1-42) monomer in 0.1% NH4OH (human) (peptide, as listed by the source): as the sequence (P05067 672-713 limits assumed) above

Turning to “Anti-Abeta monoclonal antibody clone 6E10 (Covance cat. no. SIG-39320)”, the dot blot ratio (recognition of Abeta(20-42) globulomer relative to this Abeta form) came out at 3 in [1]; 20 in experiment [2]; 29 in experiment [3]; 0.09 in [4]; 10 in experiment [5]; 10 in [6].
Turning to “Anti-HPF4 monoclonal antibody (Abcam Cat. No. ab49735)”, the Ratio HPF4/aAbeta antibody (AUC of anti-HPF4 over AUC of this antibody) in [7], in [8], in [9] and in experiment [10] was 1 each time. The Area Under Curve was 2.68 in experiment [11], 1.99 in experiment [12], 4.78 in experiment [13] and 3.84 in experiment [14]. The EC50 (read off the curve) came to 0.05 µg/mL in [15] and 0.07 µg/mL in [16].
Turning to “Monoclonal antibody clone mIgG2a (negative control)”, the Area Under Curve in experiment [11] was 0.005; in experiment [12] it was 0.006; in experiment [13], 0.015; in experiment [14] it was 0.033.
